Data from the supplement of paper PMC11136658.

Tested on: peptide library, one residue held at a place counted from the Y acceptor
Assay: relative phosphorylation of the sub-library (ratio to the mean residue at this position); higher = residue favoured
Summary of the method: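 Each value expresses phosphorylation relative to the mean randomized residue. Purified recombinant kinases acted for 90 min in 384-well plates on biotinylated Tyr-centred peptide library mixtures, with one residue fixed at one position from −5 to +5, in the presence of 50 μM ATP with γ-32P-ATP. Signals were read by phosphorimaging after capture on streptavidin membranes, then normalized per position to the sum of the 18 randomized residues (16 in the Ser/Thr-free library) and multiplied by that number.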

Sequence of FGFR3, construct: aa397-end, human (P22607 397-806, looked up): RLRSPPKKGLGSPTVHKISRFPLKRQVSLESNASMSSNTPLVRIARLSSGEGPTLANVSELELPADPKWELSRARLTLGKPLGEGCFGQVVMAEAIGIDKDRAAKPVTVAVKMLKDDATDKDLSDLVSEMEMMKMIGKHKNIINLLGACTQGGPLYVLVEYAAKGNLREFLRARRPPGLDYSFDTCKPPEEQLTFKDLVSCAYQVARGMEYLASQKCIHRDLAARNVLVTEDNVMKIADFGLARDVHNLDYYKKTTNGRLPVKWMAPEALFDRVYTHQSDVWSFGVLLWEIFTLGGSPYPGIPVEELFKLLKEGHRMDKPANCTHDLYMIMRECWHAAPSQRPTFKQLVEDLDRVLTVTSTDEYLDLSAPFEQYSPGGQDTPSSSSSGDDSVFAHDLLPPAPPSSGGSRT
Sequence of FGFR1, construct: aa456-765, human (P11362 456-765, looked up): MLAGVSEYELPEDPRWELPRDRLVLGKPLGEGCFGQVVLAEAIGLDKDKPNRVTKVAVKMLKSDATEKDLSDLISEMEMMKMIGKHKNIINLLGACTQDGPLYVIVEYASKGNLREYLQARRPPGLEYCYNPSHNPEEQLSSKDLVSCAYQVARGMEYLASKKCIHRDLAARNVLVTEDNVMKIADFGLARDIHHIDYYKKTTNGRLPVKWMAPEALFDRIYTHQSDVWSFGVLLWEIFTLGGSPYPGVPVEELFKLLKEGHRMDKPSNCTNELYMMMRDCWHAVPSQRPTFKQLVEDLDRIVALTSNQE
Sequence of FES, construct: Full length, human (P07332 whole entry, looked up): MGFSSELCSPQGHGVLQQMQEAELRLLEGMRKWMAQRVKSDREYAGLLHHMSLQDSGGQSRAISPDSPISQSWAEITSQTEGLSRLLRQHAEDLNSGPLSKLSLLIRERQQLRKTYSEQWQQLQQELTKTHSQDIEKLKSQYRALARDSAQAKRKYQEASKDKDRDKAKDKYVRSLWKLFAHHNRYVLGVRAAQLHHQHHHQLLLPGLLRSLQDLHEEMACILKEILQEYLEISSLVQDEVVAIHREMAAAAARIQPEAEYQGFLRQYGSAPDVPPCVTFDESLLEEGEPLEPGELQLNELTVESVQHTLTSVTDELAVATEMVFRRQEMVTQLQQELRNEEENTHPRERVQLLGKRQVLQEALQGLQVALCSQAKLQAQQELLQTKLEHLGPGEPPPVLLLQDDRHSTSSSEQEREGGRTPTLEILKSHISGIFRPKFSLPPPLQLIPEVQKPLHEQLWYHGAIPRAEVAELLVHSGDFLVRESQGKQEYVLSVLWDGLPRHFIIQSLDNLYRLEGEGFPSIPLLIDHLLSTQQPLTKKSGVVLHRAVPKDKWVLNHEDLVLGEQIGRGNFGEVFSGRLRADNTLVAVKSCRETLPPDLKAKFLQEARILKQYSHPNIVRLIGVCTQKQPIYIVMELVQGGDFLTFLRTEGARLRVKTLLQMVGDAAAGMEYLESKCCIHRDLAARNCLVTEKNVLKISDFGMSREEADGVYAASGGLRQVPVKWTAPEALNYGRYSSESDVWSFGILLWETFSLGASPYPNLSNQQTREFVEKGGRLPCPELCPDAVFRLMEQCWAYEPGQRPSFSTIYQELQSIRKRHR
Sequence of FER, construct: aa-541-end, human (P16591 whole entry, looked up): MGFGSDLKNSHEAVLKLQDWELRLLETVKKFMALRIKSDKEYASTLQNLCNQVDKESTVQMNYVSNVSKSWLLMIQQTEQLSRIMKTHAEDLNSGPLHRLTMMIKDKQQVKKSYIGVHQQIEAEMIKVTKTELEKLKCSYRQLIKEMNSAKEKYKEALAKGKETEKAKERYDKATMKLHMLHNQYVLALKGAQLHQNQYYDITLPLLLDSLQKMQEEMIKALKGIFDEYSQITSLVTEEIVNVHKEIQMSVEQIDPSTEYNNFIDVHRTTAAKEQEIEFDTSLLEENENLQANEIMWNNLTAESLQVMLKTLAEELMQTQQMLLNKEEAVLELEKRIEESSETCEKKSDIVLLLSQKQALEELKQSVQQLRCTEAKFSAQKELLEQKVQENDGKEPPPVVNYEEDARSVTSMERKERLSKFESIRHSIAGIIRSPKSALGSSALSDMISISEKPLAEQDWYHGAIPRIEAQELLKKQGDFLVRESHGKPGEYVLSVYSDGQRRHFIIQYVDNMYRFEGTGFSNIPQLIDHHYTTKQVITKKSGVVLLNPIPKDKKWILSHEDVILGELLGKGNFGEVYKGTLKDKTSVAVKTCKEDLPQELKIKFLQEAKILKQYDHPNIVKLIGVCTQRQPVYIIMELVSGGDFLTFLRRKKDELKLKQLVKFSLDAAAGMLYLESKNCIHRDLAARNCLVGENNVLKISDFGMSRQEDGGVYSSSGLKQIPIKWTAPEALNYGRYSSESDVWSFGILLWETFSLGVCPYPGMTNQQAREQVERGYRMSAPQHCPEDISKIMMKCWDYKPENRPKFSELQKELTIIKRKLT

FER, construct: aa-541-end, human (from UniProt P16591)
relative phosphorylation
Conditions	at +1	at +2	at +3	at +4	at +5	at -1	at -2	at -3	at -4	at -5
A fixed	1.7	0.886	0.866	0.927	1.07	0.942	1	0.818	1.1	1.05
D fixed	1.32	0.911	0.521	0.838	0.592	1.12	1.15	1.29	1.31	1.22
E fixed	2.5	1.28	0.611	1.42	0.604	1.19	1.48	1.74	1.62	1.13
F fixed	0.517	1.27	1.41	1.11	1.29	1.45	0.696	0.988	1.05	0.972
G fixed	1.24	0.645	0.606	0.94	0.882	0.427	1.09	1.1	1.12	1.17
H fixed	0.647	0.83	1.93	1.12	0.933	1.52	1.1	1.07	0.885	0.982
I fixed	0.832	1.03	1.73	0.911	1.14	1.85	0.934	0.804	0.92	1.01
K fixed	0.31	0.646	0.36	0.941	0.58	0.357	0.735	0.617	0.798	0.831
L fixed	0.71	1.15	1.06	0.874	1.31	1.43	0.916	0.84	0.958	0.977
M fixed	0.969	0.973	1.12	1.29	1.08	1.06	0.76	1.01	0.93	1.06
N fixed	0.751	1.18	0.836	0.923	0.708	0.983	1.26	1.35	0.973	1.12
P fixed	0.323	0.867	0.89	0.873	2.09	1.05	1.05	0.971	1.08	1.02
Q fixed	1.48	0.878	0.658	1.11	0.846	0.73	1.18	0.859	1.14	1.05
R fixed	0.35	0.737	0.547	1.12	0.721	0.309	0.901	0.762	0.757	0.898
S fixed	1.42	0.917	0.82	0.766	0.999	0.619	1.1	1	0.794	0.849
T fixed	1.14	0.96	0.839	0.775	1.05	0.866	0.932	0.997	0.664	0.824
V fixed	1.13	0.929	1.34	0.922	1.19	1.29	0.897	0.788	0.825	0.807
W fixed	0.667	1.91	1.86	1.14	0.931	0.809	0.824	0.981	1.07	1.04
pThr fixed	1.55	1.12	0.721	0.549	0.543	1.14	1.18	1.26	1.2	1.09
pTyr fixed	2	1.26	1.01	0.849	0.471	3.56	1.58	1.81	1.63	1.13

FES, construct: Full length, human (from UniProt P07332)
relative phosphorylation
Conditions	at +1	at +2	at +3	at +4	at +5	at -1	at -2	at -3	at -4	at -5
A fixed	1.45	0.535	0.428	0.817	1.18	0.518	1.05	0.86	1.26	1
D fixed	0.789	0.715	0.235	0.622	0.47	0.77	1.01	1.52	1.16	0.941
E fixed	2.65	0.794	0.289	1	0.374	0.567	1.27	1.89	1.27	0.9
F fixed	0.872	1.58	1.32	1.07	1.71	1.3	0.851	1.44	1.13	1.14
G fixed	0.754	0.372	0.35	1.01	0.809	0.274	1.26	0.985	1.4	1.09
H fixed	0.471	0.425	0.752	0.957	1.24	0.718	0.917	0.826	0.74	0.979
I fixed	1.07	1.3	3.25	1.25	1.23	4.02	1.02	0.823	1.1	1.07
K fixed	0.208	0.294	0.21	0.592	0.394	0.273	0.62	0.44	0.615	0.766
L fixed	0.854	1.56	1.45	0.795	1.35	2.41	1.24	0.866	1.1	1.09
M fixed	1.82	1.36	2.19	1.68	1.52	1.05	0.917	1.18	1.19	1.24
N fixed	0.332	0.848	0.273	0.57	0.593	0.618	0.982	1.02	0.762	1.14
P fixed	0.332	0.643	0.361	0.845	1.44	0.599	1.21	0.917	1.01	0.883
Q fixed	0.95	0.552	0.373	0.858	0.669	0.412	1.1	0.702	1.13	1.18
R fixed	0.219	0.379	0.252	0.946	0.536	0.228	0.657	0.536	0.62	0.854
S fixed	1.29	0.819	0.482	0.923	0.78	0.432	0.953	0.924	0.733	0.777
T fixed	1.09	0.867	0.646	0.831	1.03	0.784	0.916	0.806	0.664	0.821
V fixed	1.88	1.26	2.52	1.1	1.27	2.19	1.08	0.942	0.984	1.05
W fixed	0.981	3.69	2.61	2.14	1.4	0.835	0.948	1.32	1.12	1.08
pThr fixed	3.64	1.35	0.346	0.649	0.307	1.53	1.21	1.65	0.946	0.879
pTyr fixed	3.48	1.27	0.712	1.14	0.357	9.09	2.21	2.25	1.83	1.55

FGFR1, construct: aa456-765, human (from UniProt P11362)
relative phosphorylation
Conditions	at +1	at +2	at +3	at +4	at +5	at -1	at -2	at -3	at -4	at -5
A fixed	1.01	0.593	0.546	0.853	0.912	0.836	0.925	0.939	1.11	1.05
D fixed	0.332	0.728	0.463	0.791	1.17	2.09	1.05	1.22	1.02	1.05
E fixed	0.68	1.06	0.407	0.769	1.06	1.29	1.17	1.23	1.09	0.859
F fixed	1.81	1.68	1.57	1.12	0.897	1.06	0.673	0.814	0.905	0.897
G fixed	0.332	0.406	0.514	1.27	1.22	0.557	1.19	1.08	1.22	1.12
H fixed	1.62	0.924	0.968	1.06	0.867	1.17	1.17	1.03	1.05	1.05
I fixed	1.66	1.14	2.43	1.13	0.744	1.3	0.907	0.816	0.823	0.921
K fixed	0.379	0.581	0.302	0.866	0.903	0.461	1.03	1.01	1.02	1.12
L fixed	0.938	1.35	1.79	1.13	0.737	0.921	0.829	0.69	0.769	0.891
M fixed	1.07	1.07	1.65	0.981	0.822	0.758	0.826	0.917	0.803	0.95
N fixed	0.428	0.954	0.415	0.758	0.999	1.35	1.25	1.34	1.02	1.24
P fixed	1.13	0.702	0.621	1.3	1.72	0.954	0.919	0.962	1.22	0.954
Q fixed	0.794	0.963	0.796	0.955	0.999	1.09	1.24	1.05	1.2	1.19
R fixed	0.494	0.669	0.494	0.914	1.05	0.354	0.969	0.95	1.04	1.29
S fixed	0.888	0.818	0.6	1.01	1.14	0.678	1.2	1.19	0.918	0.988
T fixed	0.98	0.762	0.774	0.836	1.02	0.77	0.995	0.916	0.768	0.741
V fixed	1.67	1.09	1.78	1	0.84	1.21	0.9	0.84	0.789	0.753
W fixed	1.78	2.51	1.87	1.26	0.908	1.15	0.748	1.01	1.23	0.949
pThr fixed	0.496	0.942	0.298	0.559	1.03	0.884	0.846	0.938	0.771	0.696
pTyr fixed	2.43	2.39	0.408	0.758	0.987	2.02	1.13	1.06	1.07	0.764

FGFR3, construct: aa397-end, human (from UniProt P22607)
relative phosphorylation
Conditions	at +1	at +2	at +3	at +4	at +5	at -1	at -2	at -3	at -4	at -5
A fixed	0.858	0.5	0.465	0.794	1.13	0.737	0.867	0.899	1.1	0.986
D fixed	0.4	1.08	0.618	1.07	1.09	2.51	1.3	1.51	1.22	1.19
E fixed	0.764	1.5	0.479	1.15	0.944	1.71	1.58	1.73	1.42	1.01
F fixed	1.96	1.73	1.58	1.17	1.08	0.94	0.733	0.807	0.933	0.929
G fixed	0.32	0.27	0.378	0.913	1.22	0.452	1.05	0.939	1.25	1.15
H fixed	1.7	0.959	0.873	1.1	0.962	1.47	1.2	1.17	1.07	1.2
I fixed	1.19	0.857	2.07	0.872	0.763	1.1	0.57	0.533	0.738	0.651
K fixed	0.452	0.502	0.297	0.913	0.753	0.438	1.05	0.976	0.935	1.27
L fixed	1.01	1.46	2.18	0.962	0.881	1.05	0.863	0.663	0.759	0.75
M fixed	1.17	1.46	2.26	1.06	1.05	0.766	0.761	0.747	0.901	0.854
N fixed	0.458	1.01	0.416	0.828	0.943	1.33	1.24	1.35	0.924	1.15
P fixed	1.1	0.528	0.562	1.13	1.22	0.786	0.951	0.904	1.2	1.08
Q fixed	0.865	0.85	0.68	1.05	0.923	0.896	1.14	1.01	1.1	1.01
R fixed	0.577	0.607	0.428	0.953	0.814	0.396	1.1	1.04	1.01	1.27
S fixed	0.709	0.566	0.481	0.931	1.07	0.614	1.09	1.17	0.867	0.971
T fixed	0.867	0.712	0.604	0.814	1.03	0.797	1.01	0.946	0.704	0.82
V fixed	1.59	0.952	1.61	0.948	0.939	0.885	0.732	0.595	0.7	0.682
W fixed	2	2.47	2.02	1.34	1.18	1.14	0.767	1.02	1.17	1.02
pThr fixed	0.874	1.88	0.666	0.864	0.943	1.61	1.28	1.44	1.2	1.16
pTyr fixed	3.07	3.28	0.631	0.962	1	3.24	1.85	1.83	1.55	1.31
